Laboratory results taken from patent US20090291081A1 (AbbVie / Abbott, published 2009).
Like-named read-outs stand apart in the source and are kept apart here.

How the values were obtained:
human IL-1α [1] = biological target: T1, human IL-1α (human, UniProt P01583 113-271); test: cell-based or functional assay
T1 sequence (looked up): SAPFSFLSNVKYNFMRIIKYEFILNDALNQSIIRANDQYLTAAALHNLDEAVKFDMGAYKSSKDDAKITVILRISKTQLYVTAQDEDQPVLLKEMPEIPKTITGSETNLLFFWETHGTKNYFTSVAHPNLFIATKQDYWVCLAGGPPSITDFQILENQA

human IL-1β [2] = biological target: human IL-1β (human, UniProt P01584 117-269); test: cell-based or functional assay
human IL-1α [3] = biological target: T1, human IL-1α; test: cell-based or functional assay; remark: listed apart in the source
human IL-1α [4] = biological target: T2, human IL-1α (human, UniProt P01583 113-271); test: BIAcore (SPR)
T2 construct: also called IL-1alpha; hIL-1α
T2 sequence (looked up): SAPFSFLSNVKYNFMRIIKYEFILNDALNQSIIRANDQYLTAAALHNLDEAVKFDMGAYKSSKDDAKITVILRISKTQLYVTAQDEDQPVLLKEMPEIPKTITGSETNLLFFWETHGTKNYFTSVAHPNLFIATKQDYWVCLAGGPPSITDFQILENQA

human IL-1α [5] = biological target: T2, human IL-1α; test: Table 62 IC50; RBA presumed
human IL-1α [6] = biological target: T2, human IL-1α; test: cell-based or functional assay; remark: listed apart in the source
human IL-1α [7] = biological target: T2, human IL-1α; test: cell-based or functional assay; remark: listed apart in the source
human IL-1β [8] = biological target: T3, human IL-1β (human, UniProt P01584 117-269); test: BIAcore (SPR)
T3 construct: also called IL-1beta; hIL-1β

human IL-1β [9] = biological target: T3, human IL-1β; test: cell-based or functional assay; remark: listed apart in the source
human IL-1α [10] = biological target: T2, human IL-1α; test: Table 62 KD; BIAcore presumed

B1: ABT1-95-A3 (other)
VL: DIQMTQSPSSLSASVGDRVTITCRASKPGVRNMRWYQQKPGKAPKLLIYSVSYLEPGVPSRFSGSGSGTDFTLTISSLQPEDFATYHCLQGYRWPPTFGQGTKVEIKR
MRC5 ND50 (human IL-1α [1]): 11 pM

B2: ABT1-95-A5 (other)
VL: DIQMTQSPSSLSASVGDRVTITCRASRTPVRNLRWYQQKPGKAPKLLIYSRSFLEPGVPSRFSGSGSGTDFTLTISSLQPEDFATYHCLQGYRWPPTFGQGTKVEIKR
MRC5 ND50 (human IL-1α [1]): 16 pM

B3: ABT1-95-A6 (other)
VL: DIQMTQSPSSLSASVGDRVTITCRASKPGVRNMRWYQQKPGKAPKLLIYAKSYLEPGVPSRFSGSGSGTDFTLTISSLQPEDFATYHCKQGYRWPVQFGQGTKVEIKR
MRC5 ND50 (human IL-1α [1]): 24 pM

B4: ABT1-95-181 (other)
VL: DIQMTQSPSSLSASVGDRVTITCRASKPIVRNMRWYQQKPGKAPKLLIYSVSYLEPGVPSRFSGSGSGTDFTLTISSLQPEDFATYHCLQGYRWPPTFGQGTKVEIKR
MRC5 ND50 (human IL-1α [1]): 14 pM

B5: Fab ABT1-6-23/ABT2-46 (Fab, V domains shown)
VH: EVQLLESGGGLVQPGGSLRLSCAASGFTFVRYDMAWVRQAPGKGLEWVSSIYKSGALTSYDSVKGRFTISRDNSKNTLYLQMNSLRAEDTAVYYCAKGWASFDYWGQGTLVTVSS
VL: DIQMTQSPSSLSASVGDRVTITCRASQSIIEWLSWYQQKPGKAPKLLIYRTSVLQSGVPSRFSGSGSGTDFTLTISSLQPEDFATYYCQQNEFWPFTFGQGTKVEIKR
Fab IL-1β ND10 (human IL-1β [2]): 150 nM
Fab IL-1α ND10 (human IL-1α [3]): 4 nM

B6: Fab ABT1-141/ABT2-65 (Fab, V domains shown)
VH: EVQLLESGGGLVQPGGSLRLSCAASGFTFEDYQMGWVRQAPGKGLEWVSSISAMGNRTYYADSVKGRFTISRDDSKNTLYLQMNSLRAEDTAVYYCAKNLVRTQSKMWMFDYWGQGTLVTVSS
VL: DIQMTQSPSSLSASVGDRVTITCRASQWIQKQLAWYQQKPGKAPKLLIYSSSYLQSGVPRFSGSGSGTDFTLTISSLQPEDFATYYCQQHLRVPFTFGQGTKVEIKR
Fab IL-1β ND10 (human IL-1β [2]): 300 nM
Fab IL-1α ND10 (human IL-1α [3]): 80 nM

B7: Fab ABT1-96/ABT2-46 (Fab, V domains shown)
VH: EVQLLESGGGLVQPGGSLRLSCAASGFTFNQYNMFWVRQAPGKGLEWVSVISGSGRFTYADSVKGRFTISRDNSKNTLYLQMNSLRAEDTAVYYCAKGWWRRDPPFDYWGQGTLVTVSS
VL: DIQMTQSPSSLSASVGDRVTITCRASQSIIEWLSWYQQKPGKAPKLLIYRTSVLQSGVPSRFSGSGSGTDFTLTISSLQPEDFATYYCQQNEFWPFTFGQGTKVEIKR
Fab IL-1β ND10 (human IL-1β [2]): 400 nM
Fab IL-1α ND10 (human IL-1α [3]): 6 nM

B8: Fab ABT1-95/ABT2-13 (Fab, V domains shown)
VH: EVQLLESGGGLVQPGGSLRLSCAASGFTFRDYVMYWARQAPGKGLEWVSRIDPMGSSTYYADSVKGRFTISRDNSKNTLYLQMNSLRAEDTAVYYCAKPEGNFDYWGQGTLVTVSS
VL: DIQMTQSPSSLSASVGDRVTITCRASQPIHGNLRWYQQKPGKAPKLLIYNISNLQSGVPSRFSGSGSGTDFTLTISSLQPEDFATYYCQQGYRWPVTFGQGTKVEIKR
Fab IL-1β ND10 (human IL-1β [2]): 400 nM
Fab IL-1α ND10 (human IL-1α [3]): 200 nM

B9: Fab ABT1-122/ABT2-65 (Fab, V domains shown)
VH: EVQLLESGGGLVQPGGSLRLSCAASGFTFEDYQMGWVRQAPGKGLEWVSSISAMGNRTYYADSVKGRFTISRDDSKNTLYLQMNSLRAEDTAVYYCAKNLVRTQSKMWMFDYWGQGTLVTVSS
VL: DIQMTQSPSSLSASVGDRVTITCRASQPIWTELNWYQQKPGKAPKLLIYGSSSLQSGVPRFSGSGSGTDFTLTISSLQPEDFATYYCQQFAYFPATFGQGTKVEIKR
Fab IL-1β ND10 (human IL-1β [2]): 1500 nM
Fab IL-1α ND10 (human IL-1α [3]): 40 nM

B10: Fab ABT1-98/ABT2-76 (Fab, V domains shown)
VH: EVQLLESGGGLVQPGGSLRLSCAASGFTFDGYIMSWVRQAPGKGLEWVSTISPLGSVTYYADSVKGRFTISRDNSKNTLYLQMNSLRAEDTAVYYCAKKGPWFDYWGQGTLVTVSS
VL: DIQMTQSPSSLSASVGDRVTITCRASQSIDRWLAWYQQKPGKAPKLLIYRGSILQSGVPSRFSGSGSGTDFTLTISSLQPEDFATYYCQQVAFWPPTFGQGTKVEIKR
Fab IL-1β ND10 (human IL-1β [2]): 1500 nM
Fab IL-1α ND10 (human IL-1α [3]): 100 nM

B11: Fab ABT1-6-23/ABT2-13 (Fab, V domains shown)
V domain 1: EVQLLESGGGLVQPGGSLRLSCAASGFTFVRYDMAWVRQAPGKGLEWVSSIYKSGALTSYDSVKGRFTISRDNSKNTLYLQMNSLRAEDTAVYYCAKGWASFDYWGQGTLVTVSS
V domain 2: EVQLLESGGGLVQPGGSLRLSCAASGFTFRDYVMYWARQAPGKGLEWVSRIDPMGSSTYYADSVKGRFTISRDNSKNTLYLQMNSLRAEDTAVYYCAKPEGNFDYWGQGTLVTVSS
Fab IL-1β ND10 (human IL-1β [2]): > 500 nM
Fab IL-1α ND10 (human IL-1α [3]): 40 nM

B12: ABT1-86 (other)
VH: EVQLLESGGGLVQPGGSLRLSCAASGFTFDRYIMAWVRQAPGKGLEWVSSITPSGAATYYADSVKGRFTISRDNSKNTLYLQMNSLRAEDTAVYYCAEEPADRYSTWTFDYWGQGTLVTVSS
notes: VH dAb
Kd (human IL-1α [4]): 110 nM
IC50 (human IL-1α [5]): 1000 nM
MRC5 ND50 (human IL-1α [6]): 900 nM
ND50 (human IL-1α [7]): 900 nM

B13: ABT1-95 (other)
VL: DIQMTQSPSSLSASVGDRVTITCRASQPIHGNLRWYQQKPGKAPKLLIYNISNLQSGVPSRFSGSGSGTDFTLTISSLQPEDFATYYCQQGYRWPVTFGQGTKVEIKR
notes: VK dAb
Kd (human IL-1α [4]): 45 nM
IC50 (human IL-1α [5]): 500 nM
MRC5 ND50 (human IL-1α [6]): 800 nM
ND50 (human IL-1α [7]): 800 nM

B14: ABT1-122 (other)
VL: DIQMTQSPSSLSASVGDRVTITCRASQPIWTELNWYQQKPGKAPKLLIYGSSSLQSGVPSRFSGSGSGTDFTLTISSLQPEDFATYYCQQFAYFPATFGQGTKVEIKR
notes: VK dAb
Kd (human IL-1α [4]): 42 nM
IC50 (human IL-1α [5]): 80 nM
MRC5 ND50 (human IL-1α [6]): 50 nM
ND50 (human IL-1α [7]): 100 nM

B15: ABT1-141 (other)
VL: DIQMTQSPSSLSASVGDRVTITCRASQWIQKQLAWYQQKPGKAPKLLIYSSSYLQSGVPSRFSGSGSGTDFTLTISSLQPEDFATYYCQQHLRVPFTFGQGTKVEIKR
notes: VK dAb
Kd (human IL-1α [4]): 300 nM
MRC5 ND50 (human IL-1α [6]): 50 nM
ND50 (human IL-1α [7]): 142 nM

B16: ABT1-96 (other)
VH: EVQLLESGGGLVQPGGSLRLSCAASGFTFNQYNMFWVRQAPGKGLEWVSVISGSGRFTYYADSVKGRFTISRDNSKNTLYLQMNSLRAEDTAVYYCAKGWWRRDPPFDYWGQGTLVTVSS
notes: VH dAb
Kd (human IL-1α [4]): 1.1 nM
MRC5 ND50 (human IL-1α [6]): 11 nM
ND50 (human IL-1α [7]): 17 nM

B17: ABT1-98 (other)
VH: EVQLLESGGGLVQPGGSLRLSCAASGFTFDGYIMSWVRQAPGKGLEWVSTISPLGSVTYYADSVKGRFTISRDNSKNTLYLQMNSLRAEDTAVYYCAKKGPWFDYWGQGTLVTVSS
notes: VH dAb
Kd (human IL-1α [4]): 13 nM
MRC5 ND50 (human IL-1α [6]): 30 nM
ND50 (human IL-1α [7]): < 100 nM

B18: ABT2-13 (other)
VH: EVQLLESGGGLVQPGGSLRLSCAASGFTFRDYVMYWARQAPGKGLEWVSRIDPMGSSTYYADSVKGRFTISRDNSKNTLYLQMNSLRAEDTAVYYCAKPEGNFDYWGQGTLVTVSS
notes: VH dAb
Kd (human IL-1β [8]): 930 nM
MRC5 ND50 (human IL-1β [9]): ~1000 nM

B19: ABT2-46 (other)
VL: DIQMTQSPSSLSASVGDRVTITCRASQSIIEWLSWYQQKPGKAPKLLIYRTSVLQSGVPSRFSGSGSGTDFTLTISSLQPEDFATYYCQQNEFWPFTFGQGTKVEIKR
notes: VK dAb
Kd (human IL-1β [8]): 2800 nM
MRC5 ND50 (human IL-1β [9]): 386 nM

B20: ABT2-42 (other)
VL: DIQMTQSPSSLSASVGDRVTITCRASQYIEKWLTWYQQKPGKAPTLLIYRGSLLQSGVPSRFSGSGSGTDFTLTISSLQPEDFATYYCQQTEYWPFTFGQGTKVEIKR
notes: VK dAb
Kd (human IL-1β [8]): 54000 nM
MRC5 ND50 (human IL-1β [9]): 770 nM

B21: ABT2-76 (other)
VL: DIQMTQSPSSLSASVGDRVTITCRASQSIDRWLAWYQQKPGKAPKLLIYRGSILQSGVPSRFSGSGSGTDFTLTISSLQPEDFATYYCQQVAFWPPTFGQGTKVEIKR
notes: VK dAb
Kd (human IL-1β [8]): 1300 nM
MRC5 ND50 (human IL-1β [9]): 456 nM

B22: ABT2-65 (other)
VH: EVQLLESGGGLVQPGGSLRLSCAASGFTFEDYQMGWVRQAPGKGLEWVSSISAMGNRTYYADSVKGRFTISRDDSKNTLYLQMNSLRAEDTAVYYCAKNLVRTQSKMWMFDYWGQGTLVTVSS
notes: VH dAb
Kd (human IL-1β [8]): 28 nM
MRC5 ND50 (human IL-1β [9]): 266 nM

B23: ABT2-108 (other)
VH: EVQLLESGGGLVQPGGSLRLSCAASGFTFAEYTMMWVRQAPGKGLEWVSRIGQDGKNTYYADSVKGRFTISRDNSKNTLYLQMNSLRAEDTAVYYCAKYTGRVGVHHLFDYWGQGTLVTSS
notes: VH dAb
Kd (human IL-1β [8]): 110 nM
MRC5 ND50 (human IL-1β [9]): 200 nM

B24: ABT1-6-23 (other)
VH: EVQLLESGGGLVQPGGSLRLSCAASGFTFVRYDMAWVRQAPGKGLEWVSSIYKSGALTSYADSVKGRFTISRDNSKNTLYLQMNSLRAEDTAVYYCAKGWASFDYWGQGTLVTVSS
notes: VH dAb
Kd (human IL-1α [10]): 6 nM
Kd (human IL-1α [4]): 61 nM
IC50 (human IL-1α [5]): 30 nM
ND50 (human IL-1α [7]): 30 nM
